Test results published in patent publication US20060142171A1, “Novel alkaline protease” (priority 2003, published 2006).

Key:
[1] = system: elastin-orcein; assay: Elastolytic activity; format: biochemical; settings: 100 mM Tris-HCl buffer pH 8.8, 37° C.
Procedure: Elastolytic activity of AL protease was estimated by the method of (Tsai et al. 1983) with slight modification. The reaction mixture in a total volume of 1.5 ml comprised of 20 mg elastin-orcein and an appropriate amount of the enzyme in 100 mM Tris-HCl buffer pH 8.8, was incubated at 37° C. for 1 h with constant shaking. The substrate was removed by centrifugation and increase in optical density was measured at 590 nm. A control reaction was performed using the denatured enzyme as described above. The concentration of soluble products liberated was calculated from a standard curve using elastase. One unit was defined as the amount of enzyme, which solubilizes 100 μg of elastin under standard reaction conditions.

[2] = system: haemoglobin; assay: Protease activity with haemoglobin as substrate; format: biochemical; settings: 50 mM glycine-NaOH, pH 10 at 50° C.
[3] = Calcium content by ICP-SMS; format: physicochemical; settings: after treatment with chelex
Procedure: One millilitre of the purified AL protease (3 mg protein) solution was dialyzed for 24 h at 4° C. against 1 L of 10 mM glycine-NaOH buffer, pH 10.0, pretreated for 48 h with Chelex 100 (BioRad, Hercules, Calif., USA; […]) placed in a dialysis bag. Thereafter the dialysis was repeated three times against the buffer containing Chelex 100 (1.5 g/l) for a total period of 36 h at 4° C. The buffer was prepared from deionised water and plastic containers were used throughout. The residual calcium content In the enzyme sample was determined using Inductively Coupled Plasma-Mass Spectrometry (ICP-SMS).

[4] = Autolytic degradation by SDS-PAGE; format: physicochemical; settings: incubation at 50° C. up to 24 h; not shown
Procedure: Autolytic degradation of the protease was investigated by SDS-PAGE. The AL protease and Subtilisin Carlsberg were individually incubated in 10 mM Tris-HCl buffer 8 for 24 h at 50° C. Electrophoresis of the enzyme samples taken at different time intervals was performed according to the method of Laemmli, on 12% polyacrylamide gel using a Mini Protean II equipment (Bio-Rad, Richmond, Calif.).

[5] = Circular dichroism spectroscopy; format: physicochemical
Procedure: The conformational stability of the AL protease was examined by circular dichroism (CD) spectroscopy and compared with that of Subtilisin Carlsberg (bacterial protease, type VIII; Sigma Chemical Co., St. Louis, USA). The CD spectra of the proteins were obtained on a Jasco spectropolarimeter model J-720, at 25° C. in the far UV range from 195 to 250 nm at a scan rate of 10 nm/min using a sample cell path length of 0.1 cm. The ellipticity values (θ) for every nm wavelength increase were obtained in mdeg directly from the instrument and were recorded online in a computer. An average of 6 scans was calculated and the corresponding no-enzyme spectra were subtracted for each sample.

[6] = system: casein; assay: Protease activity with casein as substrate (specific activity, pH and temperature profile); format: biochemical; settings: for Optimum pH for activity: assayed at 50° C.
Procedure: The AL protease activity with 0.1-4% (w/v) casein and haemoglobin (Sigma), respectively, as protein substrates, was determined using a modified method of Ferrero et al. (1996). The reaction mixture in a total volume of 1 ml containing the substrate and an appropriate amount of the enzyme in 50 mM glycine-NaOH buffer, pH 10 was incubated at […] for 20 min, after which the reaction was terminated by addition of 0.5 ml trichloroacetic acid with subsequent centrifugation. To 0.5 ml supernatant was added 2.5 ml sodium carbonate followed by 0.5 ml of 1 M Folin-Ciocalteau Phenol reagent (Sigma). The reaction mixture was allowed to stand for 30 min-at room temperature before absorbance was measured at 660 nm. One unit of enzyme activity is defined as amount of the enzyme, which released 1 μg tyrosine per minute under the assay conditions.
Protease activity was determined using casein as substrate as described earlier [3.12]. The reaction mixture in a total volume of 2 ml was composed of 1% casein, 50 mM glycine-NaOH buffer, pH 10, and appropriately diluted enzyme. After 20 min incubation at 50° C. the reaction was terminated by adding equal volume of 10% trichloroacetic acid (TCA). After separation of the unreacted casein precipitate by centrifugation, 0.5 ml of clear supernatant was mixed with 2.5 ml of 0.5 M Na2CO3 and 0.5 ml of 1 N Folin-Ciocalteau's phenol reagent. After 30 min at 25° C., absorbance was measured at 660 nm against a reagent blank. One unit of protease activity was defined as the amount of enzyme that released 1 μg of amino acid equivalent to tyrosine per min under the standard assay conditions.
Both proteases were optimally active in the alkaline region.
The effect of temperature on activity of the two proteases was determined by assaying enzyme activity at different temperatures in glycine-NaOH buffer, pH 10, while the thermal stability was determined by incubating the enzymes at different temperatures followed by measuring the residual activity under standard conditions. These measurements were done both in the presence and absence of 5 mM Ca^2+. […] Its optimum temperature for activity was at 70° C. (FIG. 9A), but when incubated at that temperature the enzyme was inactivated within 1 h (FIG. 10A). […] At temperature values above 50° C. Ca^2+ was absolutely required for the thermal stability of AL-89 protease (FIG. 10B).
Assay of protease activity was performed according to Ferrero et al. with some modifications. One millilitre of the reaction mixture containing 1% casein in 50 mM glycine-NaOH buffer, pH 10.0 and an appropriate amount of enzyme was incubated at 50° C. for 20 min after which the reaction was terminated by addition of 0.5 ml of trichloroacetic acid and centrifuged. 2.5 ml sodium carbonate was added to 0.5 ml supernatant followed by 0.5 ml of 1 M Folin-Ciocalteau reagent. The reaction mixture was allowed to stand for 30 min at room temperature before measuring the absorbance at 660 nm. One unit of protease activity was defined as the amount of enzyme, which released 1 μg tyrosine per min under standard assay conditions.

B1: AL protease: thermostable alkaline, non-Ca2+-dependent serine protease isolated from Nesterenkonia sp. nov. strain AL (DSM 15380); SEQ. ID. NO. 1 (protein, listed as Nesterenkonia sp.)
chain: QNPADSPHIGKVFFSTNQGDFVCSANIVASANQSTVATAGHCLHDGNGGQFARNFVFAPAYDYGESEHGVWAAEELVTSAEWANRGDFEHDYAFAVLETKGGTTVQQQVGTASPIAFNQPRGQYYSAYGYPAAAPFNGQELHSCHGTATNDPMGSSTQGIPCNMTGGSSGGPWFLGQGTGGAQNSVNSYGYTFLPDVMFGPYFGSGAQQNYNYAST
Hydrolysis of elastin-orcein [1]: able to hydrolyse elastin-orcein to a detectable level | Time to complete hydrolysis of haemoglobin [2]: ≤ 20 min | Ca^2+ content [3]: 0.109 mol/mol | Degradation on gel electrophoresis [4]: unaltered | Secondary structure in the presence of SDS ([5]; 0.1-1% (w/v) SDS, data not shown): no alteration | Secondary structure after incubation ([5]; 24 h at 50° C., 10 mM glycine-NaOH buffer, pH 10.0): undisturbed | Time to complete hydrolysis of casein ([6]; 50 mM glycine-NaOH, pH 10 at 50° C.): ≤ 20 min | Optimum pH for activity [6]: 10 | Optimum pH for activity ([6]; listed as alkaline protease from Nesterenkonia sp. nov. strain): 10 | Activity as % of peak activity ([6]; at pH 12): about 60% | Activity as % of maximum activity ([6]; between pH 7.5 to 11.5): over 90% | Optimum temperature for activity ([6]; glycine-NaOH buffer, pH 10, same in presence and absence of 5 mM Ca^2+): 70 °C | Specific activity ([6]; purified enzyme, casein as substrate, pH 10, 50° C., listed as Nesterenkonia sp. AL protease): 1802.3 U/mg | Ca^2+ dependence of activity and stability ([6]; with and without 5 mM Ca^2+, all temperatures tested): Ca^2+ independent
